According to US20160193299A1, “MODIFIED NUCLEOSIDE, NUCLEOTIDE, AND NUCLEIC ACID COMPOSITIONS” (Moderna Therapeutics, Inc., priority 2011, published 2016):

Experiments:
[1] = system: reticulocytes; assay: Example 22 non-human primate study, reticulocyte count; type: in vivo, cynomolgus monkey
Description: (§1) LNP formulations, shown in Table 31 (above), were administered to non-human primates (NHP) (cynomolgus monkey) (n=2) as intravenous injection (IV). The NHP were administered a single modified mRNA IV dose of 0.5 mg/kg, 0.05 mg/kg or 0.005 mg/kg of G-CSF or EPO in a dose volume of 0.5 mL/kg. The NHPs were bled before dosing with the modified mRNA LNP formulations to determine protein expression in the serum and a baseline complete blood count. After administration with the G-CSF modified mRNA formulation the NHP were bled at 8, 24, 48 and 72 hours to determined protein expression. After administration with the EPO modified mRNA formulation the NHP were bled at 8, 24, 48, 72 hours and 7 days to determined protein expression.
Samples collected from the NHPs after they were administered with G-CSF or EPO modified mRNA formulations were analyzed by ELISA to determine protein expression. Neutrophil and reticulocyte count was also determined pre-dose, 24 hours, 3 days, 7 days, 14 days and 18 days after administration of the modified G-CSF or EPO formulation.

[2] = system: alanine transaminase (ALT); assay: Example 22 non-human primate study, serum chemistry alanine transaminase (ALT); type: in vivo, cynomolgus monkey
Description: as §1

B1: G-CSF: human G-CSF mRNA SEQ ID NO: 6, polyA ~160 nt, Cap1, fully modified with 5-methylcytosine and pseudouridine (nucleic acid, listed as Homo sapiens)
chain: GGGAAAUAAGAGAGAAAAGAAGAGUAAGAAGAAAUAUAAGAGCCACCAUGGCCGGUCCCGCGACCCAAAGCCCCAUGAAACUUAUGGCCCUGCAGUUGCUGCUUUGGCACUCGGCCCUCUGGACAGUCCAAGAAGCGACUCCUCUCGGACCUGCCUCAUCGUUGCCGCAGUCAUUCCUUUUGAAGUGUCUGGAGCAGGUGCGAAAGAUUCAGGGCGAUGGAGCCGCACUCCAAGAGAAGCUCUGCGCGACAUACAAACUUUGCCAUCCCGAGGAGCUCGUACUGCUCGGGCACAGCUUGGGGAUUCCCUGGGCUCCUCUCUCGUCCUGUCCGUCGCAGGCUUUGCAGUUGGCAGGGUGCCUUUCCCAGCUCCACUCCGGUUUGUUCUUGUAUCAGGGACUGCUGCAAGCCCUUGAGGGAAUCUCGCCAGAAUUGGGCCCGACGCUGGACACGUUGCAGCUCGACGUGGCGGAUUUCGCAACAACCAUCUGGCAGCAGAUGGAGGAACUGGGGAUGGCACCCGCGCUGCAGCCCACGCAGGGGGCAAUGCCGGCCUUUGCGUCCGCGUUUCAGCGCAGGGCGGGUGGAGUCCUCGUAGCGAGCCACCUUCAAUCAUUUUUGGAAGUCUCGUACCGGGUGCUGAGACAUCUUGCGCAGCCGUGAAGCGCUGCCUUCUGCGGGGCUUGCCUUCUGGCCAUGCCCUUCUUCUCUCCCUUGCACCUGUACCUCUUGGUCUUUGAAUAAAGCCUGAGUAGGAAG
modifications: polyA ~160, Cap1, 5mC/pseudouridine modified
With B1 the Reticulocyte count ([1]; Table 39, Female NHP, 0.005 mg/kg, 14/18 days) was 0.057 10^12/L, the Reticulocyte count ([1]; Table 39, Female NHP, 0.005 mg/kg, 24 hours) was 0.07 10^12/L and the Reticulocyte count ([1]; Table 39, Female NHP, 0.005 mg/kg, 3 days) was 0.054 10^12/L. The Reticulocyte count ([1]; Table 39, Female NHP, 0.005 mg/kg, 7 days) was 0.066 10^12/L, the Reticulocyte count ([1]; Table 39, Female NHP, 0.005 mg/kg, Pre-dose) was 0.06 10^12/L and the Reticulocyte count ([1]; Table 39, Female NHP, 0.05 mg/kg, 14/18 days) was 0.06 10^12/L. The Reticulocyte count ([1]; Table 39, Female NHP, 0.05 mg/kg, 24 hours) was 0.046 10^12/L, the Reticulocyte count ([1]; Table 39, Female NHP, 0.05 mg/kg, 3 days) was 0.061 10^12/L and the Reticulocyte count ([1]; Table 39, Female NHP, 0.05 mg/kg, 7 days) was 0.094 10^12/L. For the same molecule, the Reticulocyte count ([1]; Table 39, Female NHP, 0.05 mg/kg, Pre-dose) was 0.049 10^12/L, the Reticulocyte count ([1]; Table 39, Female NHP, 0.5 mg/kg, 14/18 days) was 0.071 10^12/L and the Reticulocyte count ([1]; Table 39, Female NHP, 0.5 mg/kg, 24 hours) was 0.046 10^12/L. For the same molecule, the Reticulocyte count ([1]; Table 39, Female NHP, 0.5 mg/kg, 3 days) was 0.017 10^12/L, the Reticulocyte count ([1]; Table 39, Female NHP, 0.5 mg/kg, 7 days) was 0.021 10^12/L and the Reticulocyte count ([1]; Table 39, Female NHP, 0.5 mg/kg, Pre-dose) was 0.055 10^12/L. The Reticulocyte count ([1]; Table 39, Male NHP, 0.005 mg/kg, 14/18 days) was 0.069 10^12/L, the Reticulocyte count ([1]; Table 39, Male NHP, 0.005 mg/kg, 24 hours) was 0.037 10^12/L and the Reticulocyte count ([1]; Table 39, Male NHP, 0.005 mg/kg, 3 days) was 0.037 10^12/L. The Reticulocyte count ([1]; Table 39, Male NHP, 0.005 mg/kg, 7 days) was 0.046 10^12/L, the Reticulocyte count ([1]; Table 39, Male NHP, 0.005 mg/kg, Pre-dose) was 0.037 10^12/L and the Reticulocyte count ([1]; Table 39, Male NHP, 0.05 mg/kg, 14/18 days) was 0.107 10^12/L. The Reticulocyte count ([1]; Table 39, Male NHP, 0.05 mg/kg, 24 hours) was 0.048 10^12/L, the Reticulocyte count ([1]; Table 39, Male NHP, 0.05 mg/kg, 3 days) was 0.101 10^12/L and the Reticulocyte count ([1]; Table 39, Male NHP, 0.05 mg/kg, 7 days) was 0.157 10^12/L. For the same molecule, the Reticulocyte count ([1]; Table 39, Male NHP, 0.05 mg/kg, Pre-dose) was 0.055 10^12/L, the Reticulocyte count ([1]; Table 39, Male NHP, 0.5 mg/kg, 14/18 days) was 0.029 10^12/L and the Reticulocyte count ([1]; Table 39, Male NHP, 0.5 mg/kg, 24 hours) was 0.032 10^12/L. For the same molecule, the Reticulocyte count ([1]; Table 39, Male NHP, 0.5 mg/kg, 3 days) was 0.041 10^12/L, the Reticulocyte count ([1]; Table 39, Male NHP, 0.5 mg/kg, 7 days) was 0.009 10^12/L and the Reticulocyte count ([1]; Table 39, Male NHP, 0.5 mg/kg, Pre-dose) was 0.067 10^12/L. For the same molecule, the ALT ([2]; Female NHP, 0.005 mg/kg, 2 days) was 32 U/L, the ALT ([2]; Female NHP, 0.005 mg/kg, 4 days) was 58 U/L and the ALT ([2]; Female NHP, 0.005 mg/kg, 7 days) was 55 U/L. It also gave an ALT ([2]; Female NHP, 0.005 mg/kg, 14 days) of 46 U/L, an ALT ([2]; Female NHP, 0.005 mg/kg, Pre-dose) of 51 U/L and an ALT ([2]; Female NHP, 0.05 mg/kg, 2 days) of 39 U/L. For the same molecule, the ALT ([2]; Female NHP, 0.05 mg/kg, 4 days) was 56 U/L, the ALT ([2]; Female NHP, 0.05 mg/kg, 7 days) was 73 U/L and the ALT ([2]; Female NHP, 0.05 mg/kg, 14 days) was 31 U/L. The ALT ([2]; Female NHP, 0.05 mg/kg, Pre-dose) was 53 U/L, the ALT ([2]; Female NHP, 0.5 mg/kg, 2 days) was 209 U/L and the ALT ([2]; Female NHP, 0.5 mg/kg, 4 days) was 98 U/L. The ALT ([2]; Female NHP, 0.5 mg/kg, 7 days) was 149 U/L, the ALT ([2]; Female NHP, 0.5 mg/kg, 14 days) was 145 U/L and the ALT ([2]; Female NHP, 0.5 mg/kg, Pre-dose) was 216 U/L. The ALT ([2]; Male NHP, 0.005 mg/kg, 2 days) was 39 U/L, the ALT ([2]; Male NHP, 0.005 mg/kg, 4 days) was 48 U/L and the ALT ([2]; Male NHP, 0.005 mg/kg, 7 days) was 29 U/L. The ALT ([2]; Male NHP, 0.005 mg/kg, 14 days) was 44 U/L, the ALT ([2]; Male NHP, 0.005 mg/kg, Pre-dose) was 43 U/L and the ALT ([2]; Male NHP, 0.05 mg/kg, 2 days) was 82 U/L. It also gave an ALT ([2]; Male NHP, 0.05 mg/kg, 4 days) of 88 U/L, an ALT ([2]; Male NHP, 0.05 mg/kg, 7 days) of 73 U/L and an ALT ([2]; Male NHP, 0.05 mg/kg, 14 days) of 50 U/L. The ALT ([2]; Male NHP, 0.05 mg/kg, Pre-dose) was 58 U/L, the ALT ([2]; Male NHP, 0.5 mg/kg, 2 days) was 63 U/L and the ALT ([2]; Male NHP, 0.5 mg/kg, 4 days) was 70 U/L. For the same molecule, the ALT ([2]; Male NHP, 0.5 mg/kg, 7 days) was 41 U/L, the ALT ([2]; Male NHP, 0.5 mg/kg, 14 days) was 43 U/L and the ALT ([2]; Male NHP, 0.5 mg/kg, Pre-dose) was 29 U/L.
